The record followed here is US20070078111A1, “LPA2 receptor agonist inhibitors of CFTR” (priority 2005, published 2007).

The target of one assay is T1, NHERF2 (Homo sapiens, UniProt Q15599).
T1 construct: GST
Kind of assay: NHERF2 binding to LPA2 in the presence of LPA2-specific peptide. To be noted: FIG. 4H. The protocol: This assay (34) was performed using maltose binding protein (MBP)-CFTR-C tail fusion protein (1 μM) immobilized on amylose beads (20 μl) and incubated with GST-NHERF2. This step, which is called pairwise binding, was done in 200 μl of lysis buffer (PBS-0.2% Triton-X 100+protease inhibitors) and mixed at 22° C. for 2 h. The complex was washed once with the same buffer and allowed to bind Flag-tagged LPA2 from lysates of BHK cells expressing the receptor. The binding was done at 4° C. for 3 h with constant mixing. The complex was washed with lysis buffer, eluted with sample buffer, and analyzed by immunoblotting using anti-Flag monoclonal antibody.

The next assay concerns CFTR Cl- channel. Kind of assay: Short-circuit current (Isc) in polarized Calu-3 monolayers. The assay is classed as cell-based, human. To be noted: peptide delivered with Chariot; 25 μM LPA (20:4) 30 min; adenosine 0-20 μM; FIG. 4F. The protocol:
Calu-3 and HT29-CL19A polarized cell monolayers were grown to confluency on Costar Transwell permeable supports (filter area is 0.33 cm^2). Filters were mounted in an Ussing chamber, and short-circuit currents (Isc) mediated through CFTR Cl^− channel were carried out as described previously (31). Epithelia were bathed in Ringer's solution (mM) (serosal/basolateral: 140 NaCl^−, 5 KCl, 0.36 K2HPO4, 0.44 KH2PO4, 1.3 CaCl2, 0.5 MgCk2, 4.2 NaHCO3, 10 Hepes, 10 glucose, pH 7.2, [Cl^−]=149), and low Cl-Ringer's solution (mM) (luminal/apical: 133.3 Na-gluconate, 5 K-gluconate, 2.5 NaCl, 0.36 K2HPO4, 0.44 KH2PO4, 5.7 CaCl2, 0.5 MgCl2, 4.2 NaHCO3, 10 Hepes, 10 mannitol, pH 7.2, [Cl^−]=14.8) at 37° C., gassed with 95% O2 and 5%) […] CO2. LPA (20:4) was added into both the luminal (apical) side and serosal (basolateral) side of the cell monolayers for 30 min before adenosine (ADO) was added into the luminal/apical side. […]

T1 sequence (Q15599 whole entry): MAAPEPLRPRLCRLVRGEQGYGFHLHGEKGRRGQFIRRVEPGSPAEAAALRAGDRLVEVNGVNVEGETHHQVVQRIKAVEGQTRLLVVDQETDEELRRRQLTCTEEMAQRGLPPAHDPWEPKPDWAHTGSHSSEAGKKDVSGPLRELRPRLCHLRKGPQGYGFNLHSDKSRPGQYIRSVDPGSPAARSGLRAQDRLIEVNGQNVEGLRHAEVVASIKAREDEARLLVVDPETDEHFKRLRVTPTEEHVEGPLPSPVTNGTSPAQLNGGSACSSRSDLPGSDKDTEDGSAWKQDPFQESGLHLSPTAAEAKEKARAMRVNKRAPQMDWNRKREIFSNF

“LPA2-specific peptide: peptide containing the PDZ motif of LPA2 (last 11 amino acids; a.a. 341 to 351, ENGHPLMDSTL)”: the “competition with LPA2 for binding to NHERF2” value with NHERF2 is recorded as “could compete with LPA2 for binding to NHERF2 in a dose-dependent manner”. Moreover, the “reversal of LPA-elicited inhibition on CFTR-dependent Cl- currents (Isc)” value in the assay on CFTR Cl- channel was “significantly reversed”.
